Measured values as given in US20140072613A1, “Compositions and Methods for Treating Cutaneous Scarring” (priority 2012, published 2014).

Columns and labels:
Assay in all cases: biochemical
Assay type in all cases: biochemical
266 human kinases [1] = target: 266 human kinases (Homo sapiens, UniProt P00533, L858R); settings: EGFR(L858R)(h); 100 μM
Method in brief: (§1)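 A filter-capture radiometric assay: phosphorylated cationic substrate binds an anionic membrane and is scintillation-counted, with values referenced to full-activity control.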

266 human kinases [2] = target: 266 human kinases (Homo sapiens, UniProt Q8WTQ7); settings: GRK7(h); 100 μM
266 human kinases (Homo sapiens, UniProt Q8WTQ7), sequence (Q8WTQ7 whole entry): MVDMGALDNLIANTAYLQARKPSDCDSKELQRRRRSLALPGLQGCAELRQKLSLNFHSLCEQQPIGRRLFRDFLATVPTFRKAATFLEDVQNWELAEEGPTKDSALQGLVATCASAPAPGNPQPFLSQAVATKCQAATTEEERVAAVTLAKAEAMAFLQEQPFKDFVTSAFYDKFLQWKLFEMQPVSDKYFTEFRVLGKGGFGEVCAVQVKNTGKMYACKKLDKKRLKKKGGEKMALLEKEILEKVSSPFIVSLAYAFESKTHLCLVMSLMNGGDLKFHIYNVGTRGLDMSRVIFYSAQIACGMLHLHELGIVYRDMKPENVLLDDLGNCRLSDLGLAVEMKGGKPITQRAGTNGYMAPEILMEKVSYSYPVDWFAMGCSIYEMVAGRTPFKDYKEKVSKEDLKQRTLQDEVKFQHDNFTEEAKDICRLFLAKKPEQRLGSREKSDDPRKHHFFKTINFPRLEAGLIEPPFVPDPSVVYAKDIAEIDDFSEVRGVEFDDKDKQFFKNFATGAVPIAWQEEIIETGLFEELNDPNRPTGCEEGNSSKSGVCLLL
Method in brief: as §1

266 human kinases [3] = target: 266 human kinases (Homo sapiens, UniProt Q96SB4); settings: SRPK1(h); 100 μM
266 human kinases (Homo sapiens, UniProt Q96SB4), sequence (Q96SB4 whole entry): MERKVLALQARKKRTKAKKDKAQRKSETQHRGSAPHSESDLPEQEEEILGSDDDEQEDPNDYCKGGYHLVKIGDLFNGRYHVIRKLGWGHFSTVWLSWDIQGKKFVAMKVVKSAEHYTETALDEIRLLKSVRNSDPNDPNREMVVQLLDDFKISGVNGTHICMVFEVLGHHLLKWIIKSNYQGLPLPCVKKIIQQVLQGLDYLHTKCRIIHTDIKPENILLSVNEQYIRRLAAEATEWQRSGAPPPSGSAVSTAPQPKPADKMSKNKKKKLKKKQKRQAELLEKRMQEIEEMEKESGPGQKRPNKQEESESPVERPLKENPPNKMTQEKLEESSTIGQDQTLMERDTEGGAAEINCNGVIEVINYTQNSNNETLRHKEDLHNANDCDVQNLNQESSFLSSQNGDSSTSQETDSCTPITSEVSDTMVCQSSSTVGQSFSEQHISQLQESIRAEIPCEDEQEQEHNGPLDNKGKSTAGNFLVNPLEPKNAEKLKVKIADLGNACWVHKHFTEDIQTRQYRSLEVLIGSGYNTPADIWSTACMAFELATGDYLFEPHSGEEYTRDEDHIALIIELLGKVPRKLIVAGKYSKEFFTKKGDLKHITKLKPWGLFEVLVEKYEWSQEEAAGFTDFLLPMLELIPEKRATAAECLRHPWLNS
Method in brief: as §1

266 human kinases [4] = target: 266 human kinases (Homo sapiens, UniProt O75676); settings: MSK2(h); 100 μM
266 human kinases (Homo sapiens, UniProt O75676), sequence (O75676 whole entry): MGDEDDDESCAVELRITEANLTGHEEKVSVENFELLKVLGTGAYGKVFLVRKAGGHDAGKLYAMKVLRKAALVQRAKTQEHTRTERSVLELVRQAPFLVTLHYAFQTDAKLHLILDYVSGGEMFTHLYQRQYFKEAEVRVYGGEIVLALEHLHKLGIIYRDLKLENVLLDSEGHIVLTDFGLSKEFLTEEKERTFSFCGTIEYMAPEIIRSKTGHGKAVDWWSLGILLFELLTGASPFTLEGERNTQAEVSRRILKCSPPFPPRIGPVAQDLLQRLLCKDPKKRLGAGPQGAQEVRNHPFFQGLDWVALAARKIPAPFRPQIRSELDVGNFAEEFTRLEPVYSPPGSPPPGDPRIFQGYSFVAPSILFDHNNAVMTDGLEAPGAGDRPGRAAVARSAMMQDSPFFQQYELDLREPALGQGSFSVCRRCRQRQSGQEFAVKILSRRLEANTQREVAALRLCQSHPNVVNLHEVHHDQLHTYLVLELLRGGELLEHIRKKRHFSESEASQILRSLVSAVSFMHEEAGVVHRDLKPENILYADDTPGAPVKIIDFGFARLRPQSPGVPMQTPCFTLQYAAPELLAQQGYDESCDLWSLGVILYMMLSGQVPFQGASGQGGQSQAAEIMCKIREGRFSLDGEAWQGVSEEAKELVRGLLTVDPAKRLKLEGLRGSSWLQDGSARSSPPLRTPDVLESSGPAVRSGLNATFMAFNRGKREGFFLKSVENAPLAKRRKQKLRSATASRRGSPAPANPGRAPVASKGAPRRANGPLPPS
Method in brief: as §1

266 human kinases [5] = target: 266 human kinases (Homo sapiens, UniProt P00533); settings: EGFR(h); 100 μM
Method in brief: as §1

266 human kinases [6] = target: 266 human kinases (Homo sapiens, UniProt O60674); settings: JAK2(h); 100 μM
266 human kinases (Homo sapiens, UniProt O60674), sequence (O60674 whole entry): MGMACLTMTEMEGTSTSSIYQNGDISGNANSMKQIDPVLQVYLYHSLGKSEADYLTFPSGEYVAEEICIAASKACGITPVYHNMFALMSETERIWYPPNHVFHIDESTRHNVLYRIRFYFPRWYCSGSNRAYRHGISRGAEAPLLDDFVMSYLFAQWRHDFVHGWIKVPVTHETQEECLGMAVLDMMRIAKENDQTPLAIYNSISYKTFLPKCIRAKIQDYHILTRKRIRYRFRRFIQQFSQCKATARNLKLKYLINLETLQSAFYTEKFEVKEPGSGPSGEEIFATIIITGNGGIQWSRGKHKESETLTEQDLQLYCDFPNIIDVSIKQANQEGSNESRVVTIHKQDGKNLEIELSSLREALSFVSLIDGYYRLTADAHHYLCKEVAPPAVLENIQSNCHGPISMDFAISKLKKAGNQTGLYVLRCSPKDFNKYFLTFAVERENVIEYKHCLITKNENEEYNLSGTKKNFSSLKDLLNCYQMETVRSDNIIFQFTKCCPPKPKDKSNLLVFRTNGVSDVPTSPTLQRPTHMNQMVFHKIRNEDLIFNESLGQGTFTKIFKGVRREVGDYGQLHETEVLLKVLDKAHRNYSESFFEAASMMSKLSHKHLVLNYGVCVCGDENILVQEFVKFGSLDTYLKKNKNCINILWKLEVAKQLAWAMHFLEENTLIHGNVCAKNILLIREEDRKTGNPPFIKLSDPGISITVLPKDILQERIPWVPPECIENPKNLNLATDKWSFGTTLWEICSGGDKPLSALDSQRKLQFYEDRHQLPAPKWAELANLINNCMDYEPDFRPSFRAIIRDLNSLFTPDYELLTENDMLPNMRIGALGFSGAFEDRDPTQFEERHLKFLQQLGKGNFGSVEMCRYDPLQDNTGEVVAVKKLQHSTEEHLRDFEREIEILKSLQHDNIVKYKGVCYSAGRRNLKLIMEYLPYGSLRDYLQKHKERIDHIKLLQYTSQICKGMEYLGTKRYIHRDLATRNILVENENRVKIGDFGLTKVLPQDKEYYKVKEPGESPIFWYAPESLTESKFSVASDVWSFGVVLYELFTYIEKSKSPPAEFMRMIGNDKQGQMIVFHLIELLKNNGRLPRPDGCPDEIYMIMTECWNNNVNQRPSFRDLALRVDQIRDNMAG
Method in brief: as §1

266 human kinases [7] = target: 266 human kinases (Homo sapiens, UniProt P08581, M1250T); settings: Met(M1268T)(h); 100 μM
Method in brief: as §1

266 human kinases [8] = target: 266 human kinases (Homo sapiens, UniProt P08069); settings: IGF-1R(h), 100 μM
Method in brief: as §1

266 human kinases [9] = target: T1, 266 human kinases (Homo sapiens, UniProt Q99683); settings: ASK1(h); 100 μM
T1 sequence (Q99683 1-1374): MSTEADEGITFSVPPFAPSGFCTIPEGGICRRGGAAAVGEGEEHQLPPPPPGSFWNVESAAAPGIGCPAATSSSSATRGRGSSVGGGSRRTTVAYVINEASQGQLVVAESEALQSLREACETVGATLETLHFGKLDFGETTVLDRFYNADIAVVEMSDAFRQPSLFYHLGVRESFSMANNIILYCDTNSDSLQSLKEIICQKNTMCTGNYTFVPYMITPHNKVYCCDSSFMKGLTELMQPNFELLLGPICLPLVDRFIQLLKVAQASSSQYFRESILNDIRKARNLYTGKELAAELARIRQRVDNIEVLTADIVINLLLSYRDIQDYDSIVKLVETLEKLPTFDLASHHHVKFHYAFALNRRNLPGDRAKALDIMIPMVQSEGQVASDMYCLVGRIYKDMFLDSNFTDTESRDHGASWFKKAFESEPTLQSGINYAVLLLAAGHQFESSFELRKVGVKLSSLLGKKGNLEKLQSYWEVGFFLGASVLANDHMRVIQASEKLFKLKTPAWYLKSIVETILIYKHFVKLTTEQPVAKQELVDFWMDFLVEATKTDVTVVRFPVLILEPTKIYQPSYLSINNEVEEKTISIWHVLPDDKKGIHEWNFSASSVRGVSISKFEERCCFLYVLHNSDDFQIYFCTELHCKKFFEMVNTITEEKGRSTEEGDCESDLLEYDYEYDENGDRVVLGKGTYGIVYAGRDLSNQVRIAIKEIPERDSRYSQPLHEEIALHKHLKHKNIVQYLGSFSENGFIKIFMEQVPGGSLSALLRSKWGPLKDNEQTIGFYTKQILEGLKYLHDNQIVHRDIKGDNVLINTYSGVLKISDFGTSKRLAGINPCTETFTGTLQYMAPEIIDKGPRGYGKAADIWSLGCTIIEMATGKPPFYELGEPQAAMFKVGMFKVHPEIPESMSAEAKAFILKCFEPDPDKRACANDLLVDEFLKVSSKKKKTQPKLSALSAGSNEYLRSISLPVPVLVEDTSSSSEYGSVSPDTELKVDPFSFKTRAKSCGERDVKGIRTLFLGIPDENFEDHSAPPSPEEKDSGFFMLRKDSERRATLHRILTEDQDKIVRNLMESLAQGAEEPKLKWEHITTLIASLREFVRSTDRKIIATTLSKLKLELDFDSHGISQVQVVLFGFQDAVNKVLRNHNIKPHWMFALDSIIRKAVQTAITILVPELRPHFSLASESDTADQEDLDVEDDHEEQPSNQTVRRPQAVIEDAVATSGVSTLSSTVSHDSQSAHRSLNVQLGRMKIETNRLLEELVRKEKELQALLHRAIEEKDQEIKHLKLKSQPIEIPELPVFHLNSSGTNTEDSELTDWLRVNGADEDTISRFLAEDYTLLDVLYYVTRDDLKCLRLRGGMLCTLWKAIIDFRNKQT
Method in brief: as §1

266 human kinases [10] = target: 266 human kinases (Homo sapiens, UniProt P08581, D1228N); settings: Met(D1246N)(h); 100 μM
Method in brief: as §1

266 human kinases [11] = target: 266 human kinases (Homo sapiens, UniProt P17252); settings: PKCα(h); 100 μM
Method in brief: as §1

266 human kinases [12] = target: T2, 266 human kinases (Homo sapiens, UniProt P42680); settings: Tec(h)activated; 100 μM
T2 sequence (P42680 1-631): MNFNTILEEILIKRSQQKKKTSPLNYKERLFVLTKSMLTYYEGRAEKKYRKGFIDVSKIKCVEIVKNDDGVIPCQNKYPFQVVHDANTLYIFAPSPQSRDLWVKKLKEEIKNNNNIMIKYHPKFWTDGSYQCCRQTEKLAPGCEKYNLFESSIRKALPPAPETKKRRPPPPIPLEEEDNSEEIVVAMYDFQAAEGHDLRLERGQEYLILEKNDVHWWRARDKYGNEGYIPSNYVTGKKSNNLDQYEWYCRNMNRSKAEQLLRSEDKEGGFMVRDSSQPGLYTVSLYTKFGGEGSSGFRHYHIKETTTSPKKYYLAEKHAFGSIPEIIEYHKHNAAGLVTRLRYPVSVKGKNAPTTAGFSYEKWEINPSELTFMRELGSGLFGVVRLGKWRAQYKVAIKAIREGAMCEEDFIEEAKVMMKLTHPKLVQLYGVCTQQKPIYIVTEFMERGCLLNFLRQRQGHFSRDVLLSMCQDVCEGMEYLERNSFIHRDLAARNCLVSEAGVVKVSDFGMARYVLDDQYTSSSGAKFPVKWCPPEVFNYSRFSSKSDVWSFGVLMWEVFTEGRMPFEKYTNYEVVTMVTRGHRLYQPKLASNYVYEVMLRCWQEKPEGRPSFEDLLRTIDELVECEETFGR
Method in brief: as §1

Row | Sequence | % activity (266 human kinases [1]) [%] | % activity (266 human kinases [2]) [%] | % activity (266 human kinases [3]) [%] | % activity (266 human kinases [4]) [%] | % activity (266 human kinases [5]) [%] | % activity (266 human kinases [6]) [%] | % activity (266 human kinases [7]) [%] | % activity (266 human kinases [8]; activated) [%] | % activity (266 human kinases [9]) [%] | % activity (266 human kinases [10]) [%] | % activity (266 human kinases [11]) [%] | % activity (266 human kinases [12]) [%] | % activity (266 human kinases [8]) [%]
1 | HRRIKAWLKKIKALARQLGVAA (mammal) [MMI-0500] | 26 | 93 | 80 | 14 | −1 | 49 | 239 | 45 | −4 | 90 | 3 | 33 | –
2 | YARAAARQARAKALNRQLGVA (mammal) [MMI-0200] | 120 | 124 | 93 | 88 | 83 | 131 | 143 | 94 | 101 | 149 | 100 | 77 | 49
